This is an account of results in patent US12173052B2.

Assay [1] has as its target loop D variants (YU-2 gp120, residues 279gp120 and 280gp120).
Assay [2] has as its target V5 variants (YU-2 gp120, residues 458gp120 and 459gp120).

Regarding 45-46m7 (45-46m2+HC W47V) (antibody), the IC50, in vitro pseudovirus neutralization is above 0.1 µg/mL in assay [1] and below 0.01 µg/mL in assay [2].

Consider NIH45-46^G54W(HC)S28Y(LC) (antibody), for which the IC50, in vitro pseudovirus neutralization in assay [1] was above 0.1 µg/mL; in assay [2] it was below 0.01 µg/mL.
